Test results from patent publication US20240197879A1 (Memorial Sloan Kettering, published 2024).

Assays:
[1] = target: human CD33 on cells (3T3 cells over-expressing CD33; U937, OCi-AML3, HL60, Set2 AML cells with endogenous CD33) (human) (UniProt P20138); assay: flow cytometry on 3T3 cells over-expressing CD33 (3T3-CD33), Alexa Fluor 647 anti-human F(ab')2 detection, non-linear regression
[2] = target: human CD33 on cells (3T3 cells over-expressing CD33; U937, OCi-AML3, HL60, Set2 AML cells with endogenous CD33) (human) (UniProt P20138); assay: flow cytometry on U937 AML cells with endogenous CD33 (U937-CD33), Alexa Fluor 647 anti-human F(ab')2 detection, non-linear regression
[3] = target: His tag recombinant human full-length CD33 (human) (UniProt P20138); assay: BLI (Octet Red96e): antibody captured on anti-huFc biosensor, huCD33-His as analyte, 1:1 Langmuir fit
His tag recombinant human full-length CD33 (human), sequence (P20138 18-259): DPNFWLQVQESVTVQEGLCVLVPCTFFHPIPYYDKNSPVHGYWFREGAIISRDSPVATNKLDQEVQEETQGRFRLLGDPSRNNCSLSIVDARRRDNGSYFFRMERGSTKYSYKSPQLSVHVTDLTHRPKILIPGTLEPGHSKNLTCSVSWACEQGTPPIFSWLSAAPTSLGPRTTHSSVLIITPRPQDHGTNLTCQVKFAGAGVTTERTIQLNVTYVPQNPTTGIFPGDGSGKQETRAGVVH

[4] = target: His tag recombinant human full-length CD33 (human) (UniProt P20138); assay: BLI epitope binning: human CD33-His on anti-penta-His biosensor, pre-saturated with H195 (self-competition)
[5] = target: His tag recombinant human full-length CD33 (human) (UniProt P20138); assay: BLI epitope binning: human CD33-His on anti-penta-His biosensor, reference biosensor (buffer), no saturating mAb
[6] = target: His tag recombinant human full-length CD33 (human) (UniProt P20138); assay: BLI epitope binning: human CD33-His on anti-penta-His biosensor, pre-saturated with 3P14
[7] = target: His tag recombinant human full-length CD33 (human) (UniProt P20138); assay: BLI epitope binning: human CD33-His on anti-penta-His biosensor, pre-saturated with 4B2A
[8] = target: T1, His tag recombinant human full-length CD33 (human, UniProt P20138 18-259); assay: BLI (Octet Red96e): antibody captured on anti-huFc biosensor, huCD33-His as analyte, 1:1 Langmuir fit
T1 construct: Commercial recombinant protein (R&D Systems / Acro Biosystems); also called huCD33-His; human CD33-His; not shown: 6xHis tag
T1 sequence (P20138 18-259): as above
Description: Lead and reference antibodies were produced recombinantly with a human IgG1 constant region. Selectivity was tested using His tag recombinant human full-length CD33 or CD33-IgC, mouse full-length CD33, and cynomolgus full-length CD33 proteins. Recombinant proteins at 5 μg/mL were captured by pre-blocked Ni-NTA plates. Candidate antibodies were added at 10 μg/mL in triplicate and detected using horseradish peroxidase (HRP)-conjugated anti-human Fc antibody. To assess the binding to cell-surface-bound CD33, 3T3 cells overexpressing CD33, as well as the U937 AML cell line, were used. U937 CD33-knockout (CD33KO) or NALM6 cells were included as negative controls. NALM6, U937 CD33⁺, and CD33KO cells were blocked with human IgG Fc for 20 minutes on ice. The recombinant antibodies were then serially diluted starting at 100 μg/mL concentration and added for 30 minutes on ice. Alexa Fluor 647-conjugated goat anti-human F(ab′)₂ was added to cells for 30 minutes on ice, washed and analyzed by flow cytometry, and normalized to secondary-only staining (MFI ratio). EC₅₀ values were determined by non-linear regression. The binding affinity and epitope binning to human CD33 protein was measured by biolayer interferometry (BLI) using an Octet Red96e. All experiments were carried out using kinetic buffer (PBS pH 7.4, 0.01% BSA, 0.002% Tween-20). […]

human CD33 on cells (3T3 cells over-expressing CD33; U937, OCi-AML3, HL60, Set2 AML cells with endogenous CD33) (human), sequence (P20138 18-364 limits assumed): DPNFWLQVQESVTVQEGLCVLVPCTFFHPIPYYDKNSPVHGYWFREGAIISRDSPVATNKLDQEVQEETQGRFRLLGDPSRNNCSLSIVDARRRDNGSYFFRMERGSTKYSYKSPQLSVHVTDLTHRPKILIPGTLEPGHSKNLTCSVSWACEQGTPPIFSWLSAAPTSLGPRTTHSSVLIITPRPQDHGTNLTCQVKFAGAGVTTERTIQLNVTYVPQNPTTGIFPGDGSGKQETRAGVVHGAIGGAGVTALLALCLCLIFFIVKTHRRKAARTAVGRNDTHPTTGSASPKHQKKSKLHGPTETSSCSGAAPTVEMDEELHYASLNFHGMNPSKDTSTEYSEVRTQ

B1: H195 (lintuzumab) (antibody, part only; not given: constant regions, human IgG1, V domains shown, not shown: another chain or arm of the molecule)
VH: QVQLVQSGAEVKKPGSSVKVSCKASGYTFTDYNMHWVRQAPGQGLEWIGYIYPYNGGTGYNQKFKSKATITADESTNTAYMELSSLRSEDTAVYYCARGRPAMDYWGQGTLVTVSS
VL: DIQMTQSPSSLSASVGDRVTITCRASESVDNYGISFMNWFQQKPGKAPKLLIYAASNQGSGVPSRFSGSGSGTDFTLTISSLQPDDFATYYCQQSKEVPWTFGQGTKVEIK
- EC50 [1]: 4.8 nM
- EC50 [2]: 0.4 nM
- Kd [3]: 1.22 nM
- kon [3]: 358000 M⁻¹ s⁻¹
- binding of competing mAb, % of reference biosensor [4]: 5%
- binding of competing mAb, % of reference biosensor [5]: 100%
- binding of competing mAb, % of reference biosensor [6]: 78%
- binding of competing mAb, % of reference biosensor [7]: 100%

B2: 3P14 (antibody, V domains shown)
VH: EVQLLESGGGLVQPGGSLRLSCAASGFTFSTYAMSWVRQAPGKGLEWVSAISGRGGSTYYTDSVKGRFTISRDNSKNTVSLQMNSLRAEDTAVYYCAGRGDYYYYYGMDVWGQGTTVTVSA
VL: DIVMTQSPLSSPVTLGQPASFSCRSSQSLVYSDGNTYLSWLQQRPGQPPRLLIYKISNRFSGVPDRFSGSGAGTDFTLKISRVEAEDVGVYYCMQSTQFPHTFGQGTKLEIK
notes: Hybridoma-derived mAb from AlivaMab mice; also called TDI-Y-006
- Kd [8]: 12.1 nM

B3: 4B2A (antibody, V domains shown)
VH: EVHLLESGGGLVQPGGSLRLSCAASGFIFSSNAMSWVRQAPGKGLEWVSAISGYGGNTYYADSVKGRFTISRDNSKNTLYLQMNSLRAEDTAVYYCAKWGTYIVGATGDYWGQGTLVTVSS
VL: QSALTQPPSASGSPGQSVTISCTGTSNDVGGYNYVSWYQQHPGKAPKLLIYEVSKRPSGVPDRFSGSQSGNTASLTVSGLQAEDEADYYCSSYAGSNNWVFGGGTKLTVL
notes: also called TDI-Y-007
- Kd [8]: 12.9 nM
